Among the data in US20170112792A1, “ENHANCED ATRA-RELATED COMPOUNDS DERIVED FROM STRUCTURE-ACTIVITY RELATIONSHIPS AND MODELING FOR INHIBITING PIN1” (Beth Israel Deaconess Medical Center, Inc., priority 2014, published 2017) are Kd values, retold here.

The target in the test is pSer110 peptide (IRAKM residues 103-124 with Ser110 phosphorylated). Nature of the test: NMR titration, 1H-15N HSQC chemical shift changes.
Chain of pSer110 peptide (IRAKM residues 103-124 with Ser110 phosphorylated) (peptide, as listed by the source limits assumed): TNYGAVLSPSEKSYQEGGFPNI

“15N-labeled Pin1 WW domain (Pin1 residues 1-50) (from UniProt Q13526 1-50)”: the Kd stood at 60.7 µM.

A word on the Kd: it is the constant that tells how readily two partners part at equilibrium.
